From patent US6566088

T1: Biotin-Acp-DLDLEALAPYIPADDDFQL, human HIF-1a ODD peptide, wild type, not hydroxylated
T1 chain: DLDLEALAPYIPADDDFQL

T2: Biotinylated human HIF-1a ODD peptide with L562A, not hydroxylated
T2 chain: DLDLEAAAPYIPADDDFQL

T3: Biotinylated human HIF-1a ODD peptide with Y565A, not hydroxylated
T3 chain: DLDLEALAPAIPADDDFQL

T4: Biotinylated human HIF-1a ODD peptide with Pro567 to Gly, not hydroxylated
T4 chain: DLDLEALAPYIGADDDFQL

T5: Biotinylated human HIF-1a ODD peptide with A563G, not hydroxylated
T5 chain: DLDLEALGPYIPADDDFQL


Legend:
[1] = molecular target: T1, Biotin-Acp-DLDLEALAPYIPADDDFQL, human …
[2] = molecular target: T2, Biotinylated human HIF-1a ODD peptide …
[3] = molecular target: T3, Biotinylated human HIF-1a ODD peptide …
[4] = molecular target: T4, Biotinylated human HIF-1a ODD peptide …
[5] = molecular target: T5, Biotinylated human HIF-1a ODD peptide …

Protein | prolyl hydroxylase activity [1] | prolyl hydroxylase activity, [^35S]-pVHL pull-down assay [1] | prolyl hydroxylation of variant peptide substrates [2] | prolyl hydroxylation of variant peptide substrates [3] | prolyl hydroxylation of variant peptide substrates [4] | prolyl hydroxylation of variant peptide substrates [5]
human HPH 1 H196A with carboxy-terminal V5-HIS tag (protein) MPLGHIMRLDLEKIALEYIVPCLHEVGFCYLDNFLGEVVGDCVLERVKQLHCTGALRDGQLAGPRAGVSKRHLRGDQITWIGGNEEGCEAISFLLSLIDRLVLYCGSRLGKYYVKERSKAMVACYPGNGTGYVRHVDNPNGDGRCITCIYYLNKNWDAKLHGGILRIFPEGKSFIADVEPIFDRLLFFWSDRRNPAEVQPSYATRYAMTVWYFDAEERAEAKKKFRNLTRKTESALTED | Each of these mutations eliminated the prolyl hydroxylase activity of the native HPH 1 enzyme | – | – | – | – | –
human HPH 1 H135A with carboxy-terminal V5-HIS tag (protein) MPLGHIMRLDLEKIALEYIVPCLHEVGFCYLDNFLGEVVGDCVLERVKQLHCTGALRDGQLAGPRAGVSKRHLRGDQITWIGGNEEGCEAISFLLSLIDRLVLYCGSRLGKYYVKERSKAMVACYPGNGTGYVRAVDNPNGDGRCITCIYYLNKNWDAKLHGGILRIFPEGKSFIADVEPIFDRLLFFWSDRRNPHEVQPSYATRYAMTVWYFDAEERAEAKKKFRNLTRKTESALTED | Each of these mutations eliminated the prolyl hydroxylase activity of the native HPH 1 enzyme | – | – | – | – | –
human HIF prolyl hydroxylase 1 (HPH 1) with carboxy-terminal V5-HIS tag (protein) MPLGHIMRLDLEKIALEYIVPCLHEVGFCYLDNFLGEVVGDCVLERVKQLHCTGALRDGQLAGPRAGVSKRHLRGDQITWIGGNEEGCEAISFLLSLIDRLVLYCGSRLGKYYVKERSKAMVACYPGNGTGYVRHVDNPNGDGRCITCIYYLNKNWDAKLHGGILRIFPEGKSFIADVEPIFDRLLFFWSDRRNPHEVQPSYATRYAMTVWYFDAEERAEAKKKFRNLTRKTESALTED | – | Of the five candidate enzymes assayed, only one, HPH-1, was able to enhance pVHL association with the biotinylated peptide | unable to modify peptides containing the L562A, A563G or Y565A mutations | unable to modify peptides containing the L562A, A563G or Y565A mutations | a peptide containing a mutation of Pro^567 to glycine served as an equal, if not better, substrate for the human HPH enzymes | unable to modify peptides containing the L562A, A563G or Y565A mutations
human HPH 1 D137A with carboxy-terminal V5-HIS tag (protein) MPLGHIMRLDLEKIALEYIVPCLHEVGFCYLDNFLGEVVGDCVLERVKQLHCTGALRDGQLAGPRAGVSKRHLRGDQITWIGGNEEGCEAISFLLSLIDRLVLYCGSRLGKYYVKERSKAMVACYPGNGTGYVRHVANPNGDGRCITCIYYLNKNWDAKLHGGILRIFPEGKSFIADVEPIFDRLLFFWSDRRNPHEVQPSYATRYAMTVWYFDAEERAEAKKKFRNLTRKTESALTED | Each of these mutations eliminated the prolyl hydroxylase activity of the native HPH 1 enzyme | – | – | – | – | –
recombinant human HPH 2 with amino-terminal MBP, purified from E. coli (protein) ANDSGGPGGPSPSERDRQYCELCGKMENLLRCSRCRSSFYCCKEHQRQDWKKHKLVCQGSEGALGHGVGPHQHSGPAPPAAVPPPRAGAREPRKAAARRDNASGDAAKGKVKAKPPADPAAAASPCRAAAGGQGSAVAAEAEPGKEEPPARSSLFQEKANLYPPSNTPGDALSPGGGLRPNGQTKPLPALKLALEYIVPCMNKHGICVVDDFLGKETGQQIGDEVRALHDTGKFTDGQLVSQKSDSSKDIRGDKITWIEGKEPGCETIGLLMSSMDDLIRHCNGKLGSYKINGRTKAMVACYPGNGTGYVRHVDNPNGDGRCVTCIYYLNKDWDAKVSGGILRIFPEGKAQFADIEPKFDRLLFFWSDRRNPHEVQPAYATRYAITVWYFDADERARAKVKYLTGEKGVRVELNKPSDSVGKDVF | Purified HPH 2 was able to hydroxylate the HIF-1a peptide substrate | – | unable to modify peptides containing the L562A, A563G or Y565A mutations | unable to modify peptides containing the L562A, A563G or Y565A mutations | a peptide containing a mutation of Pro^567 to glycine served as an equal, if not better, substrate for the human HPH enzymes | unable to modify peptides containing the L562A, A563G or Y565A mutations
human HPH 2 (splice variant) with carboxy-terminal V5-HIS tag, in vitro translated (protein) ANDSGGPGGPSPSERDRQYCELCGKMENLLRCSRCRSSFYCCKEHQRQDWKKHKLVCQGSEGALGHGVGPHQHSGPAPPAAVPPPRAGAREPRKAAARRDNASGDAAKGKVKAKPPADPAAAASPCRAAAGGQGSAVAAEAEPGKEEPPARSSLFQEKANLYPPSNTPGDALSPGGGLRPNGQTKPLPALKLALEYIVPCMNKHGICVVDDFLGKETGQQIGDEVRALHDTGKFTDGQLVSQKSDSSKDIRGDKITWIEGKEPGCETIGLLMSSMDDLIRHCNGKLGSYKINGRTKAMVACYPGNGTGYVRHVDNPNGDGRCVTCIYYLNKDWDAKVSGGILRIFPEGKAQFADIEPKFDRLLFFWSDRRNPHEVQPAYATRYAITVWYFDADERARAKVKYLTGEKGVRVELNKPSDSVGKDVF | – | both of these enzymes were observed to catalyze the hydroxylation of the key proline residue in the HIF-1a peptide substrate | – | – | – | –
